How the values were obtained:
[1] = tested on: GFP-14-3-3β and its binding proteins; assay: GFP-14-3-3β co-IP with LC-MS/MS label-free quantification, untreated versus PP1c-treated; set-up: species or system human; settings: GFP-14-3-3β co-IP LC-MS/MS; PP1 vs untreated; student's t-test; label-free quantification, 3 replicates each
GFP-14-3-3β = GFP-14-3-3β co-IP with LC-MS/MS, untreated GFP-14-3-3β versus GFP control (14-3-3 interactome); type: binding, human; settings: GFP-14-3-3β co-IP LC-MS/MS; untreated vs GFP; student's t-test; label-free quantification, 3 replicates each

B1: CCDC47 (protein, UniProt Q96A33 21-483, looked up)
PAT complex subunit CCDC47: KFDDFEDEEDIVEYDDNDFAEFEDVMEDSVTESPQRVIITEDDEDETTVELEGQDENQEGDFEDADTQEGDTESEPYDDEEFEGYEDKPDTSSSKNKDPITIVDVPAHLQNSWESYYLEILMVTGLLAYIMNYIIGKNKNSRLAQAWFNTHRELLESNFTLVGDDGTNKEATSTGKLNQENEHIYNLWCSGRVCCEGMLIQLRFLKRQDLLNVLARMMRPVSDQVQIKVTMNDEDMDTYVFAVGTRKALVRLQKEMQDLSEFCSDKPKSGAKYGLPDSLAILSEMGEVTDGMMDTKMVHFLTHYADKIESVHFSDQFSGPKIMQEEGQPLKLPDTKRTLLFTFNVPGSGNTYPKDMEALLPLMNMVIYSIDKAKKFRLNREGKQKADKNRARVEENFLKLTHVQRQEAAQSRREEKKRAEKERIMNEEDPEKQRRLEEAALRREQKKLEKKQMKMKQIKVKAM
In the case of B1, the “Difference (log2), PP1 vs untreated” value [1] is reported as -0.5387 log2 and the “Difference (log2), untreated vs GFP” value (GFP-14-3-3β) is reported as 1.192 log2.

B2: UBTF (protein, UniProt P17480 1-764, looked up)
Nucleolar transcription …: MNGEADCPTDLEMAAPKGQDRWSQEDMLTLLECMKNNLPSNDSSKFKTTESHMDWEKVAFKDFSGDMCKLKWVEISNEVRKFRTLTELILDAQEHVKNPYKGKKLKKHPDFPKKPLTPYFRFFMEKRAKYAKLHPEMSNLDLTKILSKKYKELPEKKKMKYIQDFQREKQEFERNLARFREDHPDLIQNAKKSDIPEKPKTPQQLWYTHEKKVYLKVRPDATTKEVKDSLGKQWSQLSDKKRLKWIHKALEQRKEYEEIMRDYIQKHPELNISEEGITKSTLTKAERQLKDKFDGRPTKPPPNSYSLYCAELMANMKDVPSTERMVLCSQQWKLLSQKEKDAYHKKCDQKKKDYEVELLRFLESLPEEEQQRVLGEEKMLNINKKQATSPASKKPAQEGGKGGSEKPKRPVSAMFIFSEEKRRQLQEERPELSESELTRLLARMWNDLSEKKKAKYKAREAALKAQSERKPGGEREERGKLPESPKRAEEIWQQSVIGDYLARFKNDRVKALKAMEMTWNNMEKKEKLMWIKKAAEDQKRYERELSEMRAPPAATNSSKKMKFQGEPKKPPMNGYQKFSQELLSNGELNHLPLKERMVEIGSRWQRISQSQKEHYKKLAEEQQKQYKVHLDLWVKSLSPQDRAAYKEYISNKRKSMTKLRGPNPKSSRTTLQSKSESEEDDEEDEDDEDEDEEEEDDENGDSSEDGGDSSESSSEDESEDGDENEEDDEDEDDDEDDDEDEDNESEGSSSSSSSSGDSSDSDSN
For B2, the “Difference (log2), PP1 vs untreated” value [1] was -0.5334 log2 and the “Difference (log2), untreated vs GFP” value (GFP-14-3-3β) was 1.529 log2.

B3: FARSA (protein, UniProt Q9Y285 2-508, looked up)
Phenylalanine--tRNA ligase …: ADGQVAELLLRRLEASDGGLDSAELAAELGMEHQAVVGAVKSLQALGEVIEAELRSTKHWELTAEGEEIAREGSHEARVFRSIPPEGLAQSELMRLPSGKVGFSKAMSNKWIRVDKSAADGPRVFRVVDSMEDEVQRRLQLVRGGQAEKLGEKERSELRKRKLLAEVTLKTYWVSKGSAFSTSISKQETELSPEMISSGSWRDRPFKPYNFLAHGVLPDSGHLHPLLKVRSQFRQIFLEMGFTEMPTDNFIESSFWNFDALFQPQQHPARDQHDTFFLRDPAEALQLPMDYVQRVKRTHSQGGYGSQGYKYNWKLDEARKNLLRTHTTSASARALYRLAQKKPFTPVKYFSIDRVFRNETLDATHLAEFHQIEGVVADHGLTLGHLMGVLREFFTKLGITQLRFKPAYNPYTEPSMEVFSYHQGLKKWVEVGNSGVFRPEMLLPMGLPENVSVIAWGLSLERPTMIKYGINNIRELVGHKVNLQMVYDSPLCRLDAEPRPPPTQEAA
With B3 the “Difference (log2), PP1 vs untreated” value [1] was -0.541 log2 and the “Difference (log2), untreated vs GFP” value (GFP-14-3-3β) was 1.078 log2.

B4: DNTTIP2 (protein, UniProt Q5QJE6 1-756, looked up)
Deoxynucleotidyltransferase …: MVVTRSARAKASIQAASAESSGQKSFAANGIQAHPESSTGSDARTTAESQTTGKQSLIPRTPKARKRKSRTTGSLPKGTEPSTDGETSEAESNYSVSEHHDTILRVTRRRQILIACSPVSSVRKKPKVTPTKESYTEEIVSEAESHVSGISRIVLPTEKTTGARRSKAKSLTDPSQESHTEAISDAETSSSDISFSGIATRRTRSMQRKLKAQTEKKDSKIVPGNEKQIVGTPVNSEDSDTRQTSHLQARSLSEINKPNFYNNDFDDDFSHRSSENILTVHEQANVESLKETKQNCKDLDEDANGITDEGKEINEKSSQLKNLSELQDTSLQQLVSQRHSTPQNKNAVSVHSNLNSEAVMKSLTQTFATVEVGRWNNNKKSPIKASDLTKFGDCGGSDDEEESTVISVSEDMNSEGNVDFECDTKLYTSAPNTSQGKDNSVLLVLSSDESQQSENSENEEDTLCFVENSGQRESLSGDTGSLSCDNALFVIDTTPGMSADKNFYLEEEDKASEVAIEEEKEEEEDEKSEEDSSDHDENEDEFSDEEDFLNSTKAKLLKLTSSSIDPGLSIKQLGGLYINFNADKLQSNKRTLTQIKEKKKNELLQKAVITPDFEKNHCVPPYSESKYQLQKKRRKERQKTAGDGWFGMKAPEMTNELKNDLKALKMRASMDPKRFYKKNDRDGFPKYFQIGTIVDNPADFYHSRIPKKQRKRTIVEELLADSEFRRYNRRKYSEIMAEKAANAAGKKFRKKKKFRN
With B4 the “Difference (log2), PP1 vs untreated” value [1] was -0.5492 log2 and the “Difference (log2), untreated vs GFP” value (GFP-14-3-3β) was 2.447 log2.

B5: KANK2 (protein, UniProt Q63ZY3 1-851, looked up)
KN motif and ankyrin repeat …: MAQVLHVPAPFPGTPGPASPPAFPAKDPDPPYSVETPYGYRLDLDFLKYVDDIEKGHTLRRVAVQRRPRLSSLPRGPGSWWTSTESLCSNASGDSRHSAYSYCGRGFYPQYGALETRGGFNPRVERTLLDARRRLEDQAATPTGLGSLTPSAAGSTASLVGVGLPPPTPRSSGLSTPVPPSAGHLAHVREQMAGALRKLRQLEEQVKLIPVLQVKLSVLQEEKRQLTVQLKSQKFLGHPTAGRGRSELCLDLPDPPEDPVALETRSVGTWVRERDLGMPDGEAALAAKVAVLETQLKKALQELQAAQARQADPQPQAWPPPDSPVRVDTVRVVEGPREVEVVASTAAGAPAQRAQSLEPYGTGLRALAMPGRPESPPVFRSQEVVETMCPVPAAATSNVHMVKKISITERSCDGAAGLPEVPAESSSSPPGSEVASLTQPEKSTGRVPTQEPTHREPTRQAASQESEEAGGTGGPPAGVRSIMKRKEEVADPTAHRRSLQFVGVNGGYESSSEDSSTAENISDNDSTENEAPEPRERVPSVAEAPQLRPAGTAAAKTSRQECQLSRESQHIPTAEGASGSNTEEEIRMELSPDLISACLALEKYLDNPNALTERELKVAYTTVLQEWLRLACRSDAHPELVRRHLVTFRAMSARLLDYVVNIADSNGNTALHYSVSHANFPVVQQLLDSGVCKVDKQNRAGYSPIMLTALATLKTQDDIETVLQLFRLGNINAKASQAGQTALMLAVSHGRVDVVKALLACEADVNVQDDDGSTALMCACEHGHKEIAGLLLAVPSCDISLTDRDGSTALMVALDAGQSEIASMLYSRMNIKCSFAPMSDDESPTSSSAEE
For B5, the “Difference (log2), PP1 vs untreated” value [1] was -0.5359 log2 and the “Difference (log2), untreated vs GFP” value (GFP-14-3-3β) was 1.477 log2.

B6: DHX15 (protein, UniProt O43143 1-795, looked up)
ATP-dependent RNA helicase …: MSKRHRLDLGEDYPSGKKRAGTDGKDRDRDRDREDRSKDRDRERDRGDREREREKEKEKELRASTNAMLISAGLPPLKASHSAHSTHSAHSTHSTHSAHSTHAGHAGHTSLPQCINPFTNLPHTPRYYDILKKRLQLPVWEYKDRFTDILVRHQSFVLVGETGSGKTTQIPQWCVEYMRSLPGPKRGVACTQPRRVAAMSVAQRVADEMDVMLGQEVGYSIRFEDCSSAKTILKYMTDGMLLREAMNDPLLERYGVIILDEAHERTLATDILMGVLKEVVRQRSDLKVIVMSATLDAGKFQIYFDNCPLLTIPGRTHPVEIFYTPEPERDYLEAAIRTVIQIHMCEEEEGDLLLFLTGQEEIDEACKRIKREVDDLGPEVGDIKIIPLYSTLPPQQQQRIFEPPPPKKQNGAIGRKVVVSTNIAETSLTIDGVVFVIDPGFAKQKVYNPRIRVESLLVTAISKASAQQRAGRAGRTRPGKCFRLYTEKAYKTEMQDNTYPEILRSNLGSVVLQLKKLGIDDLVHFDFMDPPAPETLMRALELLNYLAALNDDGDLTELGSMMAEFPLDPQLAKMVIASCDYNCSNEVLSITAMLSVPQCFVRPTEAKKAADEAKMRFAHIDGDHLTLLNVYHAFKQNHESVQWCYDNFINYRSLMSADNVRQQLSRIMDRFNLPRRSTDFTSRDYYINIRKALVTGYFMQVAHLERTGHYLTVKDNQVVQLHPSTVLDHKPEWVLYNEFVLTTKNYIRTCTDIKPEWLVKIAPQYYDMSNFPQCEAKRQLDRIIAKLQSKEYSQY
B6 was tested, and the “Difference (log2), PP1 vs untreated” value [1] was -0.5557 log2 and the “Difference (log2), untreated vs GFP” value (GFP-14-3-3β) was 1.871 log2.

B7: FUS (protein, UniProt P35637 1-526, looked up)
RNA-binding protein FUS: MASNDYTQQATQSYGAYPTQPGQGYSQQSSQPYGQQSYSGYSQSTDTSGYGQSSYSSYGQSQNTGYGTQSTPQGYGSTGGYGSSQSSQSSYGQQSSYPGYGQQPAPSSTSGSYGSSSQSSSYGQPQSGSYSQQPSYGGQQQSYGQQQSYNPPQGYGQQNQYNSSSGGGGGGGGGGNYGQDQSSMSSGGGSGGGYGNQDQSGGGGSGGYGQQDRGGRGRGGSGGGGGGGGGGYNRSSGGYEPRGRGGGRGGRGGMGGSDRGGFNKFGGPRDQGSRHDSEQDNSDNNTIFVQGLGENVTIESVADYFKQIGIIKTNKKTGQPMINLYTDRETGKLKGEATVSFDDPPSAKAAIDWFDGKEFSGNPIKVSFATRRADFNRGGGNGRGGRGRGGPMGRGGYGGGGSGGGGRGGFPSGGGGGGGQQRAGDWKCPNPTCENMNFSWRNECNQCKAPKPDGPGGGPGGSHMGGNYGDDRRGGRGGYDRGGYRGRGGDRGGFRGGRGGGDRGGFGPGKMDSRGEHRQDRRERPY
In the case of B7, the “Difference (log2), PP1 vs untreated” value [1] is reported as -0.548 log2 and the “Difference (log2), untreated vs GFP” value (GFP-14-3-3β) is reported as -0.2742 log2.
